Test results: patent US20170355757A1 (Regeneron, published 2017)
Positions count from the first letter of the chain named. Names and notes keep the numbering of the source.

T1: monkey C5-mmh (monkey, UniProt P01031 19-1676 (human entry), limits assumed)
T1 construct: Expressed with a C-terminal myc-myc-hexahistidine tag
T1 chain: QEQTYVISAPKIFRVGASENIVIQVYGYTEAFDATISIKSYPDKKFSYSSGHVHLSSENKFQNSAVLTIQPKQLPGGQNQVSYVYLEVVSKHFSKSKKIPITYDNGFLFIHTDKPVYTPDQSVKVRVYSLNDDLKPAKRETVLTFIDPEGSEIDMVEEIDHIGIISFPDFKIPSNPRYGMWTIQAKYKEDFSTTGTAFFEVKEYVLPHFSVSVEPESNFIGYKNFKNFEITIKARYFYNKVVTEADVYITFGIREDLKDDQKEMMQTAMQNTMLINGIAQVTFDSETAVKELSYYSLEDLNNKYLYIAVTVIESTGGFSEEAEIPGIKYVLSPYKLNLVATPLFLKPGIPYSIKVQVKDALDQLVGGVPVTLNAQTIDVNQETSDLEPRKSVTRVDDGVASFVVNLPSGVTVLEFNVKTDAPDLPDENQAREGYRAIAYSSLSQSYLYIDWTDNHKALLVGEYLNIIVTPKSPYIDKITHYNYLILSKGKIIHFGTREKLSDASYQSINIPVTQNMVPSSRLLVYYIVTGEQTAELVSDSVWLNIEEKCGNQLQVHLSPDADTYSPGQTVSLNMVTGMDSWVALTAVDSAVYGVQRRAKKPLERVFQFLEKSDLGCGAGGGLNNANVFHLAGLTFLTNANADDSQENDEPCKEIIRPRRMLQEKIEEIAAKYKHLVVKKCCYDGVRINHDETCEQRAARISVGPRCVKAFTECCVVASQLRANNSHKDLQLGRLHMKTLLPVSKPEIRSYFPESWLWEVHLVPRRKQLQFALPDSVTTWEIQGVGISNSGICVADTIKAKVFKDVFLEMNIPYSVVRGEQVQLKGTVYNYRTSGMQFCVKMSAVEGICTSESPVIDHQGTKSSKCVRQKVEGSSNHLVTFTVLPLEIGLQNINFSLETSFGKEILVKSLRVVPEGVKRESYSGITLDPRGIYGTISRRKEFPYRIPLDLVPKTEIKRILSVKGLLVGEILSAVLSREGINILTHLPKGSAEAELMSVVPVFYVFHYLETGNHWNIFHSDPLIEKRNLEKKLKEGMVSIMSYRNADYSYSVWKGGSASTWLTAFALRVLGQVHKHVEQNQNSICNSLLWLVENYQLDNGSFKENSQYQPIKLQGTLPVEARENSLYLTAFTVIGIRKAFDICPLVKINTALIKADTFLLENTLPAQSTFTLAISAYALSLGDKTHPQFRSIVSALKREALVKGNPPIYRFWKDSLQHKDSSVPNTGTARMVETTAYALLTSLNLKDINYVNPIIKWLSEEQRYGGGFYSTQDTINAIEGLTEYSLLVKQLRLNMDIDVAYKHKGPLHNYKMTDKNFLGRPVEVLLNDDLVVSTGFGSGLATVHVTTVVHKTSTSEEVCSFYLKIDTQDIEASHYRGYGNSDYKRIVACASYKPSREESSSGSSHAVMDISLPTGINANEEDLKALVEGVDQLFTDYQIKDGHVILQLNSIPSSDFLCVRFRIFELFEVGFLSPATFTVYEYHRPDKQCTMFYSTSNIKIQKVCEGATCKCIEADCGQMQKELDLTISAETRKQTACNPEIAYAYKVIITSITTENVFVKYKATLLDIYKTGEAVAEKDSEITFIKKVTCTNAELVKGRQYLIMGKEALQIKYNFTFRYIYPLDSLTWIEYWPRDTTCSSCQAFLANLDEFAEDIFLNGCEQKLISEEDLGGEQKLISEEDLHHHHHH

B1: H4H12166P4 (antibody, human IgG4, V domains shown)
VH: QVQLQESGPGLVKPSETLSLTCTVSGDSVSSSYWTWIRQPPGKGLEWIGYIYYSGSSNYNPSLKSRATISVDTSKNQFSLKLSSVTAADTAVYYCAREGNVDTTMIFDYWGQGTLVTVSS
VL: AIQMTQSPSSLSASVGDRVTITCRASQGIRNDLGWYQQKPGKAPKLLIYAASSLQSGVPSRFAGRGSGTDFTLTISSLQPEDFATYYCLQDFNYPWHFGQGTKVEIK
notes: human IgG4 Fc with S108P hinge mutation
B2: H4H12166P5 (antibody, human IgG4, V domains shown)
VH: B1 VH with F107H
VL: B1 VL with H97T
notes: as for B1
B3: H4H12166P6 (antibody, human IgG4, V domains shown)
VH: B1 VH with T103H
VL: B1 VL with H97T
notes: as for B1
B4: H4H12166P7 (antibody, human IgG4, V domains shown)
VH: B1 VH with G99H
VL: B1 VL
notes: as for B1
B5: H4H12166P8 (antibody, human IgG4, V domains shown)
VH: B1 VH with T103H
VL: B1 VL with L89H, H97T
notes: as for B1
B6: H4H12166P9 (antibody, human IgG4, V domains shown)
VH: B1 VH with T103H
VL: B1 VL
notes: as for B1
B7: H4H12166P10 (antibody, human IgG4, V domains shown)
VH: B1 VH with F107H
VL: B1 VL
notes: as for B1
B8: H4H11683N (antibody, human IgG4, V domains shown)
VH: QVQLVESGGGVVQPGRSLRLSCVASGFTFSSYGIHWVRQAPGKGLEWVAVIWDDGNNINYSDSVKGRFIISRDNSRKTVYLQMNSLRGEDTAVYYCARDAPIAPVPDYWGQGTLVTVSS
VL: DIQMTQSPSTLSASVGDRVTITCRASQSISSWLAWYQQKPGKAPKLLIYKASSLDTGVPSRFSGSGSGTEFTLTISSLQPDDFATYYCQQYNTYSYTFGLGTKLEIK
notes: also called H2M11683N
B9: H4H12171P (antibody, human IgG4, V domains shown)
VH: EVQLVESGGGVVRPGGSLRLSCAASGFTFDEYGMTWVRQVPGKGLEWVSGITWNGGFTDYTDSVKGRFTSSRDNAKNSLYLQMNSLRAEDTALYYCARDGYSSSWGAYDIWGQGTMVTVSS
VL: DIQMTQSPSSLSASVGDRVTITCRASQSISTYLNWYQQKPGKAPKLLIYAASSLQSGVPLRFSGSGSGTDFTLTISSLQPEDFASYFCQQSYSTPYTFGQGTKLEIK

Biological target: T1, monkey C5-mmh
Experiment: SPR, mAb captured by anti-hFc, 25C
Procedure: (§1) Equilibrium dissociation constants (KD values) for C5 binding to purified anti-C5 antibodies were determined using a real-time surface plasmon resonance biosensor assay on a Biacore T200 instrument. The Biacore sensor surface was derivatized by amine coupling with a monoclonal mouse anti-human Fc antibody (GE Healthcare, # BR-1008-39) to capture anti-C5 antibodies expressed with human Fc constant regions. Biacore binding studies were conducted in HBST running buffer (0.01M HEPES pH 7.4, 0.15M NaCl, 3 mM EDTA, 0.05% v/v Surfactant P20).
(§2) Human C5 was obtained from a commercial source (EMD). Other C5 reagents were expressed with a C-terminal myc-myc-hexahistidine tag (subsequently referred to as C5-mmh). […] Association of all the C5 reagents to each of the captured monoclonal antibodies was monitored for 3 minutes and their dissociation in HBST running buffer was monitored for 8 minutes. All the binding kinetics experiments were performed at either 25° C. or 37° C. Kinetic association (kₐ) and dissociation (kd) rate constants were determined by fitting the real-time sensorgrams to a 1:1 binding model using Scrubber 2.0c curve fitting software. Binding dissociation equilibrium constants (KD) and dissociative half-lives (t %) were calculated from the kinetic rate constants as: KD (M)=kd/kₐ and t_{1/2} (min)=In2/(60×kd)

Row | Binder | 100 nM monkey C5-mmh Bound (RU) | Kd [nM] | koff [s⁻¹] | kon [M⁻¹ s⁻¹] | t1/2 [min]
1 | B1 | 69 | 8.5 | 0.00178 | 210000 | 6
2 | B2 | 56 | 24 | 0.00346 | 144000 | 3
3 | B3 | 94 | 11.1 | 0.00266 | 239000 | 4
4 | B4 | 36 | 46.5 | 0.00633 | 136000 | 2
5 | B5 | 47 | 21.6 | 0.00499 | 231000 | 2
6 | B6 | 55 | 18.7 | 0.00318 | 170000 | 4
7 | B7 | 15 | 64.4 | 0.00616 | 95600 | 2
8 | B8 | 403 | 0.64 | 0.000247 | 386000 | 47
9 | B9 | 17 | 4.92 | 0.000226 | 46000 | 51

biological target: T2, Human C5 (human, UniProt P01031 19-1676); experiment: SPR, mAb captured by anti-hFc, 25C
T2 construct: The natural protein has a beta and an alpha chain; also called complement factor 5; complement component 5
Procedure: as §1, §2

Row | Binder | 100 nM Human C5 Bound (RU) | Kd [nM] | koff [s⁻¹] | kon [M⁻¹ s⁻¹] | t½ [min]
10 | B1 | 92 | 0.395 | 0.000176 | 446000 | 66
11 | B2 | 110 | 1.15 | 0.000328 | 285000 | 35
12 | B3 | 131 | 0.375 | 0.000184 | 489000 | 63
13 | B4 | 92 | 3.67 | 0.00101 | 274000 | 11
14 | B5 | 91 | 1.42 | 0.000686 | 484000 | 17
15 | B6 | 100 | 0.794 | 0.000264 | 332000 | 44
16 | B7 | 69 | 8.38 | 0.00132 | 157000 | 9
17 | B8 | 439 | 0.123 | 5.14e-05 | 417000 | 225
18 | B9 | 64 | 0.549 | 8.16e-05 | 149000 | 142

biological target: T2, Human C5; experiment: SPR, mAb captured by anti-hFc, 37C
Procedure: as §1, §2

Row | Binder | 100 nM Human C5 Bound (RU) | Kd [nM] | koff [s⁻¹] | kon [M⁻¹ s⁻¹] | t½ [min]
19 | B1 | 108 | 0.93 | 0.000469 | 505000 | 25
20 | B2 | 129 | 2.77 | 0.00122 | 440000 | 9
21 | B3 | 157 | 0.875 | 0.000474 | 542000 | 24
22 | B4 | 105 | 7.39 | 0.00258 | 349000 | 4
23 | B5 | 98 | 3.1 | 0.00209 | 675000 | 6
24 | B6 | 122 | 1.7 | 0.000639 | 375000 | 18
25 | B7 | 82 | 13.8 | 0.00314 | 227000 | 4
26 | B8 | 492 | 0.532 | 0.000241 | 454000 | 48
27 | B9 | 58 | 6.27 | 0.000762 | 122000 | 15
